Reference: paper PMC2632919 (Nucleic Acids Research, 2008)

T1: HmtSSB (human mitochondrial SSB) (Homo sapiens, UniProt Q04837 17-148)
T1 sequence: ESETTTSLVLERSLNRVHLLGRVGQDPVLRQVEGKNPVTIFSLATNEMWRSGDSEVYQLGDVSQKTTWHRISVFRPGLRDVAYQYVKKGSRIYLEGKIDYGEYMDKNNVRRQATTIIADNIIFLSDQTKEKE

B1: human mitochondrial single-stranded DNA-binding protein (HmtSSB) (natural protein, UniProt Q04837 17-148, looked up)
chain: T1 sequence

Experiments:
AUC = biological target: the molecule itself; test: AUC
[1] = biological target: T1, HmtSSB (human mitochondrial SSB); test: fluorescence anisotropy
[2] = biological target: T1, HmtSSB (human mitochondrial SSB); test: fluorescence anisotropy; remark: listed apart in the source

Row | Binder | stoichiometry N (AUC) | Kd [1] [nM] | apparent K (half saturation) [2] [nM]
1 | B1 | 4 |  | 
2 | GTTTTCCCAGTCACGAC (ssDNA) [17-mer] |  | 19.2 ± 3.1 | 19.4 ± 4
